B1: HDV Ribozyme (parent)
chain: GGCCGGCAUGGUCCCAGCCUCCUCGCUGGCGCCGGCUGGGCAACAUUCCGAGGGGACCGUCCCCUCGGUAAUGGCGAAUGGGACCCA

In this series the parent is B1. In words: self-cleavage, relative activity (ratio to wild type); higher = more cleavage; co-transcriptional.
With C19U G50C, the self-cleavage was 0.332. The value for C19U G50A was 0.245; that for C19U G74C was 0.126. Under C19U G74A stands 0.0961.

For the variant C19U C58G, the self-cleavage worked out at 0.0959. As to C19U C58U, the self-cleavage was determined as 0.126. On to C19U C58A, for which the self-cleavage was found to be 0.086. Under C19G C62A stands 0.0264; under C19G C62U, 0.116. Under C19G C64U stands 0.056; under C19G C64G, 0.113. The value for C19G A42C was 0.0978; that for C19G A42U was 0. For C19A U23A, the self-cleavage was found to be 0.0302. As to C19G C63G, the self-cleavage came to 0.229. Under C19G C63A stands 0.0936; under C19U G82U, 0.0702. The value for C19G G55U was 0.04. Under C19U C62U stands 0.244; under C19U C62A, 0.142. With U20A C58A, the self-cleavage amounted to 0.0615. The value for U20A C58G was 0.158. Under U20A C33G stands 0.151; under C19G A78G, 0.0875; under U20A G29U, 0.0875. Turning to C19G G54U, the self-cleavage is 0.0594. Take C19G G54A: the self-cleavage came out at 0.116. The value for C19A G74C was 0.125; that for C19A G74U was 0.101; that for U20A A70C was 0.104. The value for U20A A70G was 0.147; that for U20A A70U was 0.0615; that for C19G A71U was 0. For the variant C19G A71G, the self-cleavage turned out to be 0.158. The value for C19U U37C was 0.185; that for C19U U37G was 0.0755; that for C19U U37A was 0.0936.

Take C19G U37C: the self-cleavage was found to be 0.0594. Under C19G stands 0.0688; under C19U, 0.152; under C19U C75U, 0.0329. Consider C19U C75A, for which the self-cleavage came to 0.0665. The value for C19U U60G was 0.182.

As to C19U U60C, the self-cleavage was determined as 0.0906.

For C19U U60A, the self-cleavage came to 0.192. The value for U20A A77C was 0.151; that for U20A A77G was 0.0723.

For the variant C19G C66G, the self-cleavage was 0.141. The value for C19G C66A was 0.108; that for C19U U46A was 0.0875; that for C19G A56G was 0.0639. The value for C19G A56U was 0.0573; that for C19U C32U was 0.295; that for C19U C32A was 0.0361.

As to U20A G50U, the self-cleavage was determined as 0. The value for C19G G76U was 0.0791; that for C19U U20G was 0.0594. Take C19G G40A: the self-cleavage was found to be 0.0573. The value for C19G G40C was 0.102; that for C19A U20C was 0. On to C19U C44G, for which the self-cleavage amounted to 0.0519. As for C19A G80A, the self-cleavage came out at 0.0329. Consider C19U U23A, for which the self-cleavage came out at 0.129. As for U20A C75U, the self-cleavage was determined as 0.0489. As to C19U G80C, the self-cleavage came to 0.112. Under C19U G80U stands 0.0642.

In the case of C19G A83U, the self-cleavage turned out to be 0.0504.

For U20A C44G, the self-cleavage was found to be 0.111. The value for U20A C44U was 0; that for U20A C44A was 0.0573.

For C19G C30U, the self-cleavage turned out to be 0.0462.

As to C19G C24U, the self-cleavage turned out to be 0.0339.

Take C19G C24A: the self-cleavage turned out to be 0.115. Under C19G C24G stands 0. Under C19G U20A stands 0.0314; under C19G U20G, 0.138; under C19G C75G, 0.032.

For the variant C19G U23A, the self-cleavage came out at 0. The value for C19G U23G was 0.0811. Turning to C19U G28U, the self-cleavage is 0.172. The value for C19U G28C was 0.0875; that for U20A C21U was 0.0898; that for C19A U79C was 0.107. The value for C19A U79G was 0.0923. Under C19G G39A stands 0.032; under C19G G39U, 0.0707; under U20A A45C, 0.0639. C19A G40C: the self-cleavage amounted to 0.0587.

Regarding C19A G40U, the self-cleavage is 0.0437. U20A C32A: the self-cleavage stood at 0.0489. On to C19G G34U, for which the self-cleavage was determined as 0.095. For C19A G73C, the self-cleavage stood at 0.058. Under C19A G55A stands 0.0906.

Consider C19U G40A, for which the self-cleavage came to 0.0944. The value for C19U G40C was 0.0923. With C19A U69G, the self-cleavage stood at 0.12. Under C19A U69A stands 0.143; under C19U C24U, 0.101; under C19G G81C, 0.0462. Regarding C19G G81A, the self-cleavage turned out to be 0.117. The value for U20A G38A was 0.0332. The value for U20A G38U was 0.122; that for C19A G31A was 0.117. Under C19U U65C stands 0.154; under C19U U65G, 0.182; under C19U U65A, 0.0791.

Regarding C19U C48U, the self-cleavage was 0.0978.

C19U C48G: the self-cleavage came to 0.0594. For C19U C48A, the self-cleavage was determined as 0.117. Consider C19U G25A, for which the self-cleavage turned out to be 0.0252. The value for C19U G54C was 0.2. Under C19U C30G stands 0.0936; under C19U C30A, 0.0449. The value for U20A C86U was 0.119; that for U20A C86G was 0.166; that for U20A C86A was 0.0723.

On to C19U G35C, for which the self-cleavage is 0.0831.

For C19U G35A, the self-cleavage came out at 0.234. Under U20A A42C stands 0.0594. The value for U20A A42U was 0; that for C19A G52A was 0.0863. In the case of C19U C41U, the self-cleavage was 0.173.

C19A G29A: the self-cleavage amounted to 0. The value for C19A G29C was 0.0941; that for C19G G29U was 0; that for C19G G29A was 0.0378. Under C19G G29C stands 0.201; under C19G C33U, 0.151. The value for C19A G38U was 0.0346. As for C19U G55A, the self-cleavage stood at 0.225. The value for C19U G55C was 0.164; that for C19U A87G was 0.107; that for C19U A87C was 0.235. For U20A G54C, the self-cleavage turned out to be 0.196. Under U20A G54U stands 0.0923; under C19G G53U, 0.0542.

In the case of C19G G53C, the self-cleavage is 0.0852. The value for C19G G53A was 0.041; that for C19G U65A was 0.0354; that for C19G U65C was 0. Under C19G U65G stands 0.111; under U20A C41U, 0; under U20A C41A, 0.0396. Under C19G C21A stands 0.208; under C19G C21G, 0.0326; under U20A C62G, 0.0639. Take C19G G73U: the self-cleavage was found to be 0.0545.

As to U20A A51U, the self-cleavage amounted to 0.104.

Consider U20A A51C, for which the self-cleavage came to 0. The value for U20A A51G was 0; that for C19A U60A was 0.141; that for C19A U60C was 0.107.

On to C19A U60G, for which the self-cleavage was determined as 0.0361. The value for U20A G53C was 0.0773. U20A G53A: the self-cleavage was determined as 0.122.

Consider C19A G54A, for which the self-cleavage was 0.0536.

On to C19U A77U, for which the self-cleavage was found to be 0.107. U20A C24G: the self-cleavage came out at 0.0449. Take U20A A87U: the self-cleavage was 0.0282.

Consider U20A A87G, for which the self-cleavage came out at 0.0831. The value for U20A A87C was 0.0631; that for C19U C21G was 0.0339. Turning to C19G G50C, the self-cleavage was found to be 0.0528.

Regarding C19G G50A, the self-cleavage amounted to 0.073. As to C19G G50U, the self-cleavage was found to be 0.108. Under U20A G39U stands 0.0852; under C19A G81C, 0.0272.

Source of the values: the RNAGym collection of RNA variant scans (doi:10.7554/elife.80360).
